Test results taken from article PMC6642127.

Biological target: P8 carrier peptide (Influenza H5N1)
Assay: AUC

In the case of P8 carrier peptide, the percent of the peptide as trimers is reported as 70% and the stoichiometry N is reported as 3.
